Data on 1 substance can be found in publication PMC9367177.

This assay deals with CC12.1 (human). Nature of the assay: SPR. Background: SPR reads the build-up and loss of mass on a sensor chip optically.

For orientation: Kd means the free concentration of one partner at which half of the binding sites on the other are occupied at equilibrium, for simple one-to-one binding. Read a low Kd as tighter binding.

Chain of CC12.1 (human) (heavy, as listed by the source, chain 1 of 2): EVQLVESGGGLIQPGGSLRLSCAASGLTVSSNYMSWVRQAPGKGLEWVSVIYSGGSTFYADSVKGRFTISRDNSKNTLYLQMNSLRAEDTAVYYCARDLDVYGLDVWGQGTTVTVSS
Chain of CC12.1 (human) (light, as listed by the source, chain 2 of 2): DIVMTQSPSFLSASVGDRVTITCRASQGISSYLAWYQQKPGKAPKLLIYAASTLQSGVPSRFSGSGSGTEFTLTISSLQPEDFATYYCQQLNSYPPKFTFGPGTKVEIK

On to “SARS-CoV-2 RBD Alpha (B.1.1.7) (from UniProt P0DTC2) (domain or fragment)”, for which the Kd came to 14.4 nM.
